Patent US20230324404A1 (Takeda / Millennium, published 2023)

B1: Anti-ZIKV #4 (Clone 289-3) (antibody, V domains shown)
VH: QEELEESGGDLVKPGASLTLTCKASGFSFSSGAYICWVRQAPGKGPEWIACIYTGDGRTYYANWAKRRFTISSSSSTTVALEMPSLTDADTATYFCARAIAVGAGYGVGNYFTLWGPGTLVTVSS
VL: DIVMTQTPSSVSAAVGGTVTINCHASENIYGYLSWYQQKPGQPPKLLIYKASTLASGVPSRFKGSGAGTQFTLTITALECADAATYYCQSYYTSSSNADGSENAFGGGTEVVVEG
B2: Anti-ZIKV #11 (Clone 11-3) (antibody, V domains shown)
VH: QEQLVESGGGLVQPEGSLTITCTGSGFSFSSRFYMCWVRQAPGKGLEWIACIYGGSSGSTYYASWAKGRFTISKTSSTTVTLQISSLTAADTATYFCARGGSTAAAGFNLWGPGTLLTVSS
VL: DVVMTQTPASVSATVGGTVTIKCQASEDIYNLLAWYQQKPGQPPKLLIYYASTLASGVPSRFKGSGSGTEFTLTISDLECADAATYYCQCNDYGGTYVPNAFGGGTEVVVKG

How the values were obtained:
[1] = molecular target: rZIKV-EDIII-1 (recombinant 6xHis-SUMO-tagged ZIKV EDIII) (Zika virus strain H/PF/2013, UniProt A0A024B7W1 589-697); assay: Bio-layer interferometry (Octet)
[2] = molecular target: T1, DENV1 VLP (strain Puerto Rico/US/BID-V853/1998) (Dengue virus serotype 1 strain Puerto …); assay: microsphere immunoassay, DENV1 VLP-coupled microspheres
T1 construct: also called dengue-1 virus like particle

[3] = molecular target: T2, DENV2 VLP (strain Thailand/16681/84) (Dengue virus serotype 2 strain …); assay: microsphere immunoassay, DENV2 VLP-coupled microspheres
T2 construct: also called dengue-2 virus like particle

[4] = molecular target: T3, DENV3 VLP (strain Sri Lanka D3/H/IMTSSA-SRI/2000/1266) (Dengue virus serotype 3 strain Sri …); assay: microsphere immunoassay, DENV3 VLP-coupled microspheres
T3 construct: also called dengue-3 virus like particle

[5] = molecular target: T4, DENV4 VLP (strain Dominica/814669/1981) (Dengue virus serotype 4 strain …, UniProt P09866 114-732); assay: microsphere immunoassay, DENV4 VLP-coupled microspheres
T4 construct: also called dengue-4 virus like particle

[6] = molecular target: T1, DENV1 VLP (strain Puerto …); assay: microsphere immunoassay, DENV1 VLP-coupled microspheres, 120 min incubation
[7] = molecular target: T2, DENV2 VLP (strain Thailand/16681/84); assay: microsphere immunoassay, DENV2 VLP-coupled microspheres, 120 min incubation
[8] = molecular target: T3, DENV3 VLP (strain Sri Lanka …); assay: microsphere immunoassay, DENV3 VLP-coupled microspheres, 120 min incubation
[9] = molecular target: T4, DENV4 VLP (strain Dominica/814669/1981); assay: microsphere immunoassay, DENV4 VLP-coupled microspheres, 120 min incubation
[10] = molecular target: T5, ZIKV VLP (zika virus like particle, isolate Z1106033) (Zika virus isolate Z1106033 (Suriname, …, UniProt A0A024B7W1 123-794))
T5 construct: also called zika VLP; ZIKV VLPs

| Binder | binding result [1] | binding result [2] | binding result [3] | binding result [4] | binding result [5] | binding result [6] | binding result [7] | binding result [8] | binding result [9] | EC25 [10] [ng/mL] | EC50 [10] [ng/mL] |
| --- | --- | --- | --- | --- | --- | --- | --- | --- | --- | --- | --- |
| B1 | binds | no binding (tested: 0.001 to 20 µg/mL) | no binding (tested: 0.001 to 20 µg/mL) | no binding (tested: 0.001 to 20 µg/mL) | no binding (tested: 0.001 to 20 µg/mL) | – | – | – | – | – | – |
| B2 | – | – | – | – | – | no binding (tested: 0.001 to 20 µg/mL) | no binding (tested: 0.001 to 20 µg/mL) | no binding (tested: 0.001 to 20 µg/mL) | no binding (tested: 0.001 to 20 µg/mL) | 3.2 | 10.5 |
